Experimental data published in patent US20090098076A1, “Method For the Production of a Keratin-Binding Effector Molecule” (BASF SE, priority 2005, published 2009).

Assays:
[1] = biological target: human skin keratin (human); assay: quantitative skin binding test (human keratinocytes in microtiter plates), anti-His antibody, TMB; settings: scale: absorption at 405 nm, standardized to the surface
human keratinocytes = assay: Quantitative binding to skin (Example 15)
Protocol: (§1) In order to investigate the binding strength of the KBD-D (SEQ ID No.:168) to skin and hair compared to the KBD-B (SEQ ID No.:166), a quantitative test was carried out. In this test firstly hair was incubated with KBD-B or KBD-D and excess KBD-D or -D was washed off. An antibody-peroxidase conjugate was then coupled via the His/tag of the KBD-B or -D. Nonbound antibody-peroxidase conjugate was washed off again. The bound antibody-peroxidase conjugate can convert a colorless substrate (TMB) into a colored product, which was measured photometrically at 405 nm. The intensity of the absorption indicates the amount of bound KBD-B or -D.
The test for binding to skin was carried out with human keratinocytes in microtiter plates as follows. • 2× washing with PBS/0.05% Tween 20 • addition of 1 ml of 1% BSA in PBS and incubation for 1 h at room temperature, gentle swinging movements (900 rpm). • removal of the supernatant • addition of 100 μg of KBD in PBS with 0.03% Tween 20; incubation for 2 h at room temperature and gentle swinging movements (900 rpm). • removal of the supernatant • 3× washing with PBS/0.05% Tween 20 • incubation with 1 ml of monoclonal mouse anti-tag-His6 antibodies for 2-4 h at room temperature, gentle swinging movement (900 rpm) • 3× washing with PBS/0.05% Tween 20 • addition of peroxidase substrate (1 ml/Eppendorf vessels composition see below) reaction until a blue coloration (about 90 seconds). • reaction stopped with 100 μl of 2 M H2SO4. • the absorption was measured at 405 nm.
(§2) Peroxidase Substrate (Prepared Shortly Beforehand):
0.1 ml TMB solution (42 mM TMB in DMSO) +10 ml substrate buffer (0.1 M sodium acetate pH 4.9) +14.7 μl H2O2 3% strength

[2] = biological target: human hair keratin (human hair, cut into 5 mm sections) (human); assay: quantitative hair binding test, anti-polyHis peroxidase conjugate, TMB; after 10% strength SDS treatment; settings: scale: absorption at 405 nm, standardized to the surface
hair (human) = assay: Quantitative binding to hair (Example 15)
Protocol: as §1
In order to characterize the hair binding of the KBD-D compared to the KBD-B, the following binding assay was carried out:
5 mg of hair (human) were cut into sections 5 mm in length and transferred to Eppendorf vessels (protein low-bind). • addition of 1 ml of ethanol for degreasing • centrifugation, removal of ethanol and washing of the hair with H2O • centrifugation, removal of the supernatant • addition of the keratin-binding domains to be tested (coupled to tag—e.g. His6, HA etc.) in 1 ml of PBS/0.05% Tween 20; incubation for 2 h at room temperature with gentle swinging movements • centrifugation, removal of the supernatant • 3× washing with PBS/0.05% Tween 20 • incubation with 1 ml monoclonal mouse anti-tag-(His6 or HA) antibodies with peroxidase conjugate (1:2000 in PBS/0.05% Tween 20) [Monoclonal AntipolyHistidine Peroxidase Conjugate, produced in mouse, lyophilized powder, Sigma] for 2-4 h at room temperature, gentle swinging movement • 3× washing with PBS/0.05% Tween 20 • addition of peroxidase substrate (1 ml/Eppendorf vessel) • allow reaction to proceed until blue coloration (90 seconds). • stop the reaction with 100 μl of 2 M H2SO4.
The absorption was measured at 405 nm
as §2
0.1 ml TMB solution (42 mM TMB in DMSO) +10 ml substrate buffer (0.1 M sodium acetate pH 4.9) +14.7 μl H2O2 3% strength BSA=bovine serum albumin PBS=phosphate buffered salt solution Tween 20=polyoxyethylene sorbitan monolaureate, n about 20 TMB=3,5,3′,5′-tetramethylbenzidine

[3] = biological target: human skin keratin (human); assay: quantitative skin binding test, loss relative to untreated skin after 10% strength SDS treatment
[4] = biological target: human hair keratin (human hair, cut into 5 mm sections) (human); assay: quantitative hair binding test, anti-polyHis peroxidase conjugate, TMB; settings: scale: absorption at 405 nm, standardized to the surface
[5] = biological target: human skin keratin (human); assay: quantitative skin binding test (human keratinocytes in microtiter plates), anti-His antibody, TMB; after 10% strength SDS treatment; settings: scale: absorption at 405 nm, standardized to the surface
[6] = biological target: human hair keratin (human hair, cut into 5 mm sections) (human); assay: quantitative hair binding test, loss relative to untreated hair after 10% strength SDS treatment
skin keratin = assay: Qualitative binding to skin (adhesive tape keratin layer, Examples 8 and 14); settings: transparent adhesive tape with human skin keratin layer; negative control buffer only
Protocol: A visual qualitative test was developed in order to examine whether KBD binds to skin.
Blocking solution: Western Blocking Reagent 1921673 Roche (10× solution) diluted in TBS.
TBS: 20 mM Tris; 150 mM NaCl pH 7.5
The first step is the transfer of the outer keratin layer of the skin to a stable support. For this purpose, a transparent adhesive tape is firmly applied to depilated human skin and removed again. The test can be carried out directly on the transparent adhesive strip, or the adhering keratin layer can be transferred to a glass slide through renewed adhesion.
A visual qualitative test was used in order to examine whether the KBD-D (SEQ ID No.: 168) binds to skin.
Blocking solution: Western Blocking Reagent 1921673 Roche (10× solution) diluted in TBS
A blue colored precipitate, being a reaction of the antipolyhistidine-AP conjugate interacting with the KBD-D, was visible on the transparent adhesive tape treated with KBD-D. As negative control, a transparent adhesive tape was treated only with buffer. No significant blue coloration could be seen here.

[7] = values standardized to the surface, after 10% strength SDS treatment
[8] = values standardized to the surface, no SDS treatment

B1: KBD-D (keratin-binding domain of human plakophilin) with N-terminal histidine anchor (SEQ ID No.: 168) (protein)
chain: MRGSHHHHHHGSACELGTMNHSPLKTALAYECFQDQDNSTLALPSDQKMKTGTSGRQRVQEQVMMTVKRQKSKSSQSSTLSHSNRGSMYDGLADNYNYGTTSRSSYYSKFQAGNGSWGYPIYNGTLKREPDNRRFSSYSQMENWSRHYPRGSCNTTGAGSDICFMQKIKASRSEPDLYCDPRGTLRKGTLGSKGQKTTQNRYSFYSTCSGQKAIKKCPVRPPSCASKQDPVYIPPISCNKDLSFGHSRASSKICSEDIECSGLTIPKAVQYLSSQDEKYQAIGAYYIQHTCFQDESAKQQVYQLGGICKLVDLLRSPNQNVQQAAAGALRNLVFRSTTNKLETRRQNGIREAVSLLRRTGNAEIQKQLTGLLWNLSSTDELKEELIADALPVLADRVIIPFSGWCDGNSNMSREVVDPEVFFNATGCLRNLSSADAGRQTMRNYSGLIDSLMAYVQNCVAASRCDDKSVENCMCVLHNLSYRLDAEVPTRYRQLEYNARNAYTEKSSTGCFSNKSDKMMNNNYDCPLPEEETNPKGSGWLYHSDAIRTYLNLMGKSKKDATLEACAGALQNLTASKGLMSSGMSQLIGLKEKGLPQIARLLQSGNSDVVRSGASLLSNMSRHPLLHRVMGNQVFPEVTRLLTSHTGNTSNSEDILSSACYTVRNLMASQPQLAKQYFSSSMLNNIINLCRSSASPKAAEAARLLLSDMWSSKELQGVLRQQGFDRNMLGTLAGANSLRNFTSRF
Absorption at 405 nm [1]: 3.69 | Relative absorption loss after 10% strength SDS treatment in %, skin (human keratinocytes; relative to untreated skin): 15% | binding to skin compared with hair (in words) (human keratinocytes; summary of Tab. 10): more strongly to skin | Absorption at 405 nm, binding to skin after 10% strength SDS treatment (human keratinocytes; [7]): 3.15 | Absorption at 405 nm, binding to skin (human keratinocytes; [8]): 3.69 | influence of washing with SDS solution on binding (human keratinocytes; washing with an up to 10% strength SDS solution, in contrast to KBD-B): only more weakly influenced | Absorption at 405 nm [2]: 0.62 | Relative absorption loss after 10% strength SDS treatment in %, hair (hair (human); relative to untreated hair): 30% | binding to hair (in words) (hair (human); summary of Tab. 10): can bind to hair | Absorption at 405 nm, binding to hair after 10% strength SDS treatment (hair (human); [7]): 0.62 | Absorption at 405 nm, binding to hair (hair (human); [8]): 0.88 | Relative absorption loss after 10% strength SDS treatment in % [3]: 15% | Absorption at 405 nm [4]: 0.88 | Absorption at 405 nm [5]: 3.15 | Relative absorption loss after 10% strength SDS treatment in % [6]: 30% | binding to skin keratin (blue colored precipitate) (skin keratin): has bound to the skin keratin
